The chains are these.
B1: Zinc finger MYM-type protein 3, residues 589 to 668; numbered along this chain, Q14202 (parent)
chain: LSCHYCHSLFSGKPEVLDWQDQVFQFCCRDCCEDFKRLRGVVSQCEHCRQEKLLHEKLRFSGVEKSFCSEGCVLLYKQDF

± gives the uncertainty stated by the source.

The variants in the data set derive from B1. The data set is described as follows: abundance fitness (aPCA) (normalised: wild type 0, dead -1); higher = more abundant; growth selection in yeast, the domain comes from the species named. The following applies: Homo sapiens.
On to LSCHYCHSLFSGKPEVLDWQDQVFQFCCRDCCEDFKRLRGVVSQCEHCRQEKLLHEKLRFSGVEGSFCSEGCVLLYKQDF [K65G], for which the abundance fitness is -0.779 ± 0.16. As for LSCHYCHSLFSGKPEVLDWQMQVFQFCCRDCCEDFKRLRGVVSQCEHCRQEKLLHEKLRFSGVEKSFCSEGCVLLYKQDF [D21M], the abundance fitness came to 0.068 ± 0.054. As for LSCHYCHSLFSGKPEVLDWQDQVFQFCCRDICEDFKRLRGVVSQCEHCRQEKLLHEKLRFSGVEKSFCSEGCVLLYKQDF [C31I], the figure is -1.02 ± 0.26; as for LSCHYCHSLFSGKPEVLDWQDCVFQFCCRDCCEDFKRLRGVVSQCEHCRQEKLLHEKLRFSGVEKSFCSEGCVLLYKQDF [Q22C], 0.117 ± 0.058; as for LSCHYCHSLFSGKPEVLDWQDSVFQFCCRDCCEDFKRLRGVVSQCEHCRQEKLLHEKLRFSGVEKSFCSEGCVLLYKQDF [Q22S], 0.24 ± 0.043. The value for LSCHTCHSLFSGKPEVLDWQDQVFQFCCRDCCEDFKRLRGVVSQCEHCRQEKLLHEKLRFSGVEKSFCSEGCVLLYKQDF [Y5T] was -0.009 ± 0.051; that for LSCHYHHSLFSGKPEVLDWQDQVFQFCCRDCCEDFKRLRGVVSQCEHCRQEKLLHEKLRFSGVEKSFCSEGCVLLYKQDF [C6H] was -0.821 ± 0.13. As for LSCHYPHSLFSGKPEVLDWQDQVFQFCCRDCCEDFKRLRGVVSQCEHCRQEKLLHEKLRFSGVEKSFCSEGCVLLYKQDF [C6P], the figure is -0.949 ± 0.13. With LSCHYCHSLFSGKPEVLDWQDQVFQFCCRDCCCDFKRLRGVVSQCEHCRQEKLLHEKLRFSGVEKSFCSEGCVLLYKQDF [E33C], the abundance fitness is -0.151 ± 0.054.

Regarding LSCHYCHSLFSGKPEVLDWQDQVFQFCCRDCCTDFKRLRGVVSQCEHCRQEKLLHEKLRFSGVEKSFCSEGCVLLYKQDF [E33T], the abundance fitness was -0.093 ± 0.058. As for LSCHYCHSLFSGKPEVLDWQDQVFQFCCRDCCEDFKRLRGVVSQCEHCRQEKLLHEKLLFSGVEKSFCSEGCVLLYKQDF [R59L], the abundance fitness stood at 0.251 ± 0.099.

Regarding LSCHYCHSLFSMKPEVLDWQDQVFQFCCRDCCEDFKRLRGVVSQCEHCRQEKLLHEKLRFSGVEKSFCSEGCVLLYKQDF [G12M], the abundance fitness was -0.143 ± 0.049. The value for LSCHYCHSLFSGKPEKLDWQDQVFQFCCRDCCEDFKRLRGVVSQCEHCRQEKLLHEKLRFSGVEKSFCSEGCVLLYKQDF [V16K] was -0.11 ± 0.058.

LSCHYCHSLFSGKVEVLDWQDQVFQFCCRDCCEDFKRLRGVVSQCEHCRQEKLLHEKLRFSGVEKSFCSEGCVLLYKQDF [P14V]: the abundance fitness is -0.246 ± 0.054. As for LSCHYCHSLFSGKPEVTDWQDQVFQFCCRDCCEDFKRLRGVVSQCEHCRQEKLLHEKLRFSGVEKSFCSEGCVLLYKQDF [L17T], the figure is -0.06 ± 0.05; as for LSCWYCHSLFSGKPEVLDWQDQVFQFCCRDCCEDFKRLRGVVSQCEHCRQEKLLHEKLRFSGVEKSFCSEGCVLLYKQDF [H4W], 0.079 ± 0.045. As for LSCHYCHSLFSGKPEVLDWQDQVFQFCCRDCCEDFKRLRGVVSQCEHCRQEKLLHSKLRFSGVEKSFCSEGCVLLYKQDF [E56S], the figure is -0.299 ± 0.16; as for LSCHYCHSLFSGKPEVLDWQDQVFQFCCRDCCEDFKRLRGVVSQCEHCRQEKLLHRKLRFSGVEKSFCSEGCVLLYKQDF [E56R], -0.006 ± 0.084; as for LSCHYCHSLFSGKPEVLDWQDQVFQFCCRDCCEDFKRLRGVVSQCEHCRQEKLLHQKLRFSGVEKSFCSEGCVLLYKQDF [E56Q], -0.112 ± 0.14. As for LSCHYCHSLFSGKPEVLDWQDQVFQFCCRDCCEDFKRLRGVVSQCEHCRQEKLLHCKLRFSGVEKSFCSEGCVLLYKQDF [E56C], the figure is -0.041 ± 0.32. Turning to LSCHYCHSLFSGKPEVLDWYDQVFQFCCRDCCEDFKRLRGVVSQCEHCRQEKLLHEKLRFSGVEKSFCSEGCVLLYKQDF [Q20Y], the abundance fitness is -0.3 ± 0.21. As for LSCHYCHSLFSGKPEVLDWGDQVFQFCCRDCCEDFKRLRGVVSQCEHCRQEKLLHEKLRFSGVEKSFCSEGCVLLYKQDF [Q20G], the figure is 0.334 ± 0.043; as for LSCHYCHSLFSGKPEVLDWQDQVFQFCCRDCCEDFKRLRGVVSQCEHCRQEKLLHEKLRFSGVEKSFCSEGCVLLYKLDF [Q78L], 0.466 ± 0.12.

Regarding LSCHYCHSLFSGKPEVLDWQDQVFQFCCRDCCEDFKRLRGVVSQCEHCRQEKLLHEKLRFSGVEKSFCSEGCVLLYKADF [Q78A], the abundance fitness came out at 0.034 ± 0.11. As for LSCHYCHSLFSGKPEVLDWQDQVFQFCCRDCCEDFKRLRGVVSQCAHCRQEKLLHEKLRFSGVEKSFCSEGCVLLYKQDF [E46A], the figure is 0.932 ± 0.072; as for LSCHYCHSLFSGKPEVLDWQDQVFQFCCRDCCEDFKRLRGVVSQCEHCRQEKLLHEKLRFSGVEKSFCSEGCVLLMKQDF [Y76M], -0.524 ± 0.34; as for LSCHYCHSLFSGKPEVLDWQDQVFQFCCRDCCEDFKRLRGVVSQCEHCRQEKLIHEKLRFSGVEKSFCSEGCVLLYKQDF [L54I], 0.201 ± 0.23. As for LSCHYCHSLFSGKPEVLDWQDQVFQFCCRDCCERFKRLRGVVSQCEHCRQEKLLHEKLRFSGVEKSFCSEGCVLLYKQDF [D34R], the figure is -0.093 ± 0.042; as for LSCHYCHSLFSGKPEVLDWQDQVFQFCCRDCCEDFKRLRGVVSQCEHCRQEKLLHEKFRFSGVEKSFCSEGCVLLYKQDF [L58F], 0.065 ± 0.28. In the case of LSCHYCHSLFLGKPEVLDWQDQVFQFCCRDCCEDFKRLRGVVSQCEHCRQEKLLHEKLRFSGVEKSFCSEGCVLLYKQDF [S11L], the abundance fitness was -0.374 ± 0.048.

For the variant LSCHYCHSLFFGKPEVLDWQDQVFQFCCRDCCEDFKRLRGVVSQCEHCRQEKLLHEKLRFSGVEKSFCSEGCVLLYKQDF [S11F], the abundance fitness was -0.397 ± 0.082. As for LSCHYCHSLFSGKPEVLDWQDQVFQFCCRDCCEDFKRLRGVVSQCEHCRQEKLLHEKLRFSGVEKSFCSEGCVYLYKQDF [L74Y], the figure is -0.446 ± 0.38. As for LSCHYCHSLFSGKPEVLDWQDQVFQFCCRDCCEDFKRLRGVVSQYEHCRQEKLLHEKLRFSGVEKSFCSEGCVLLYKQDF [C45Y], the abundance fitness was -1.18 ± 0.4. LSCHYCHSLFSGKPEVLDWQDQVFQFCCRDCCEDFKRLRGVVSQWEHCRQEKLLHEKLRFSGVEKSFCSEGCVLLYKQDF [C45W]: the abundance fitness was -0.983 ± 0.3. As for LSCHYCHSLFSGKPEVLDWQDQVFQFCCRDCCEDFKRLRGVVSQDEHCRQEKLLHEKLRFSGVEKSFCSEGCVLLYKQDF [C45D], the figure is -0.658 ± 0.22.

The values above are taken from the Human Domainome abundance scans (Beltran et al. 2025).
